The record followed here is patent publication US20250388666A1 (BRIGHAM AND WOMEN S HOSPITAL, published 2025).

What is called Kd is a measure of binding affinity in units of concentration.

For assay [1], the target named is T1, CEACAM1 (Sino Biological) (human, UniProt P13688 35-428, limits assumed).
T1 construct: may be the same as CEACAM1-HIS; also called hCEACAM1; biotinylated soluble CEACAM1
T1 sequence: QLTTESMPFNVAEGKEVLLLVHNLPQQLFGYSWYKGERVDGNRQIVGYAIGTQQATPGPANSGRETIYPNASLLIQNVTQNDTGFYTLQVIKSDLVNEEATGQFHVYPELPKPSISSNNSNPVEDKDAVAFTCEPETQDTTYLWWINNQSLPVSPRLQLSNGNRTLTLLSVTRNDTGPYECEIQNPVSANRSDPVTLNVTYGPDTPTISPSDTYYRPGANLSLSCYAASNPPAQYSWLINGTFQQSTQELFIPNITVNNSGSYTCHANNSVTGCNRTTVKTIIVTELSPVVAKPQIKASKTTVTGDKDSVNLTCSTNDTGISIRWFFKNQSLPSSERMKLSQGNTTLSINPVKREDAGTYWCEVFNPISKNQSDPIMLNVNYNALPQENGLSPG
As to the kind of experiment: SPR single-cycle. Summed up:
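Humanized affinity-matured IgGs from crude supernatants captured on Protein A to ~100 RU, with CEACAM1 analyte injected at 25–100 nM (three-point, two-fold) in HBS-P+ without regeneration. 200 s association per injection, 300 s single dissociation; reference-channel and blank subtracted.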

The target in assay [2] is T2, CEACAM6 on transfected HeLa cells (UniProt P40199 35-320, limits assumed).
T2 construct: whole, on cells; also called C6
T2 sequence (looked up): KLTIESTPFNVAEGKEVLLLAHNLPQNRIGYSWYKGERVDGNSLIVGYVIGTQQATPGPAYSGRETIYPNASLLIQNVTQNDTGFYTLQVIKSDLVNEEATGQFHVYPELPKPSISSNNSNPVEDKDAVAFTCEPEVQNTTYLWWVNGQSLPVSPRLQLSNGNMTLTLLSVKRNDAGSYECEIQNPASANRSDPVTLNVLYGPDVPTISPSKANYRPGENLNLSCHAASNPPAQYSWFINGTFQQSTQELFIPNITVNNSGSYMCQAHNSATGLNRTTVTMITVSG
As to the kind of experiment: flow cytometry, transfected HeLa. Summed up:
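HeLa cells transfected separately with CEACAM1, CEACAM5 or CEACAM6 were stained with test antibodies, then fluorochrome-conjugated anti-isotype (human IgG4 or mouse IgG1) secondary plus DAPI viability dye. Binding read by flow cytometry.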
(Flow cytometry measures light scatter and fluorescence of single cells or particles in a stream.)

The target of assay [3] is T1, CEACAM1 (Sino Biological). The assay can be described thus: SPR multi-cycle, IgG on Protein A.
Assay [4] has as its target T3, CEACAM3 (Sino Biological) (human, UniProt P40198 35-155, limits assumed).
T3 construct: also called hCEACAM3
T3 sequence (looked up): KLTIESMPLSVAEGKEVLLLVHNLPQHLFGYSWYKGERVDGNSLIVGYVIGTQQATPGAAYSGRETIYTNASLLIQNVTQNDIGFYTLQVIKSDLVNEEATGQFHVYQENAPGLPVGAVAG
As to the kind of experiment: binding ELISA on plate-coated CEACAM (0.5 µg/mL); antibody at 1.67, 0.062 and 0.0069 µg/mL; signal as % of parent IgG on CEACAM1 at 1.67 µg/mL on the same plate. A general note: ELISA stands for enzyme-linked immunosorbent assay.

B1: VH2 N56Q/Vκ4 S27(f)A IgG (antibody, V domains shown)
VH: EVQLLESGGGLVQPGGSLRLSCAASGFSFSDYYLYWVRQAPGKGLEWVATISVGGGQTSYADSVKGRFTISRDNSKNTLYLQMNSLRAEDTAMYYCTRGLYYGPAWFAYWGQGTLVTVSS
VL: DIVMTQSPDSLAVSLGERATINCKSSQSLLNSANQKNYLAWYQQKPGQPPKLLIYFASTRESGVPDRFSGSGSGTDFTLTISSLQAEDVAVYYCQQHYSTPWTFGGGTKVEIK
notes: IgG4 S241P, kappa; also called Parent; Parent IgG
Regarding B1, in assay [1], the affinity, expressed as Kd, was 551 nM and the “fold better than Parent (KD)” value is 1 fold. The molecule also displayed a relative fluorescence intensity in assay [2] of 1.31. The “relative KD to Parent” value in assay [3] amounted to 1 ratio. Moreover, in assay [4], the binding result is “no binding (tested: 1.67 µg/mL)”.
